Measurements published in publication PMC3150472 (Structure (London, England : 1993), 2011).
Each block holds one molecule with its values, some of them ahead of it. *1 amine or outer side, *2 acyl side, *3 side chain or, on linkers, in order; H or OH if unused. Where no end group is shown, it is not given here. [ ]: non-standard residue; d: D form. CEL = Nε-carboxy-ethyl-lysine, CC(NCCCC[C@H](N[*:1])C(=O)[*:2])C(=O)[*:3]; CML = Nε-carboxy-methyl-lysine, O=C([C@H](CCCCNCC(=O)[*:3])N[*:1])[*:2]

Legend:
[1] = test system: RAGE; conditions: free amino acid, not embedded in a peptide; ref Xie et al., 2008; cited from earlier work
[2] = target: V domain of RAGE (Homo sapiens, UniProt Q15109); assay: Tryptophan fluorescence titration, wild type V domain; conditions: single site binding isotherm, 25 °C, pH 6.5, 100 mM NaCl
[3] = target: K52A V domain of RAGE (human, UniProt Q15109 24-125, K52A); assay: other fluorescence titration
[4] = target: R98A V domain of RAGE (human, UniProt Q15109 24-125, R98A); assay: other fluorescence titration
[5] = target: K52A, R98A V domain of RAGE (human, UniProt Q15109 24-125, K52A | R98A); assay: other fluorescence titration
[6] = target: V domain of RAGE (wild type) (human, UniProt Q15109 24-125); assay: other fluorescence titration
[7] = target: the molecule itself; assay: NMR gradient diffusion

Chain of R98A V domain of RAGE (Q15109 24-125 R98A): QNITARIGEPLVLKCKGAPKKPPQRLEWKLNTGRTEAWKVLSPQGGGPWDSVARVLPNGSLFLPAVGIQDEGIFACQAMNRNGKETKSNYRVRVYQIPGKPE
Chain of K52A V domain of RAGE (Q15109 24-125 K52A): as the sequence (Q15109 24-125 R98A) above, with K29A, A75R counted along it
Chain of K52A, R98A V domain of RAGE (Q15109 24-125 K52A/R98A): as the sequence (Q15109 24-125 R98A) above, with K29A counted along it

Molecule: CC(NCCCC[C@H](N)C(=O)O)C(=O)O (stereo partly shown) [CEL, Nε-carboxy-ethyl-lysine]
binding to RAGE [1]: do not bind

Molecule: N[C@@H](CCCCNCC(=O)O)C(=O)O [CML, Nε-carboxy-methyl-lysine]
binding to RAGE [1]: do not bind

Kd [2]: 104 ± 5 µM
Molecule: CC(NCCCC[C@H](NC(=O)[C@H](Cc1ccccc1)NC(=O)[C@H](CCC(=O)O)NC(=O)[C@@H](N)CC(=O)O)C(=O)N[C@@H](C)C(=O)N[C@@H](CC(=O)O)C(=O)N[C@@H](CCC(=O)O)C(=O)O)C(=O)O (stereo partly shown) [DEF(CEL)ADE]

Molecule: CC(C)C[C@H](NC(=O)[C@H](CC(=O)O)NC(=O)[C@H](CCCCNC(C)C(=O)O)NC(=O)[C@@H](N)Cc1ccccc1)C(=O)NCC(=O)N[C@@H](CCC(=O)O)C(=O)N[C@@H](CCC(=O)O)C(=O)O (stereo partly shown) [F(CEL)DLGEE]
Kd [2]: 93 ± 6 µM

Kd [3]: 560 ± 32 µM | Kd [4]: 685 ± 26 µM | Kd [5]: 912 ± 42 µM
Molecule: DEF[CEL]ADE [DEF(CEL)ADE]

Kd [6]: 87 ± 5 µM
Molecule: F[CML]DLGEE [F(CML)DLGEE]

B1: VC1 domain of RAGE (wild type) (domain or fragment, human, UniProt Q15109 23-243, looked up)
chain: AQNITARIGEPLVLKCKGAPKKPPQRLEWKLNTGRTEAWKVLSPQGGGPWDSVARVLPNGSLFLPAVGIQDEGIFRCQAMNRNGKETKSNYRVRVYQIPGKPEIVDSASELTAGVPNKVGTCVSEGSYPAGTLSWHLDGKPLVPNEKGVSVKEQTRRHPETGLFTLQSELMVTPARGGDPRPTFSCSFSPGLPRHRALRTAPIQPRVWEPVPLEEVQLVVE
binding result [7]: binds

Kd [6]: 97 ± 3 µM
Molecule: DEF[CML]ADE [DEF(CML)ADE]
